Percent of binding remaining data for one substance are collected here from PMC10657410.

In this experiment the target is GST-ApCaV2a1 C-terminal fragment 1 with the putative RxLPxxP site removed (Aplysia californica). Put plainly: pull-down; GST protein on glutathione beads rotated with His-tag protein eluate overnight at 4 °C; washed 4 x 10 min with PBS; eluted by boiling; SDS-PAGE, Ponceau stain and blot with anti-His antibody.

Consider “His-SH3-3 domain of Aplysia RIM-binding protein (ApRBP) (domain or fragment)”, for which the percent of binding remaining came to 26%.
